Reference: the supplement of paper PMC7877785
± gives the uncertainty stated by the source.

Assay: self-splicing fitness, log relative to wild type (ln ratio); higher = more splicing; Tetrahymena group I intron in knt gene, E. coli kanamycin selection, DiMSum; sequences stand for … in CUCUCU…GGAGGGAAAAGUUAUCAGGCAUGCACCUGGUAGCUAGUCUUUAAACCAAUAGAUUGCAUCGGUUUAAAAGGCAAGACCGUCAAAUUGCGGGAAAGGGGUCAACAGCCGUUCAGUACCAAGUCUCAGGGGAAACUUUGAGAUGGCCUUGCAAAGGGUAUGGUAAUAAGCUGACGGACAUGGUCCUAACCACGCAGCCAAGUCCUAAGUCAACAGAUCUUCUGUUGAUAUGGAUGCAGUUCACAGACUAAAUGUCGGUCGGGGAAGAUGUAUUCUUCUCAUAAGAUAUAGUCGGACCUCUCCUUAAUGGGAGCUAGCGGAUGAAGUGAUGCAACACUGGAGCCGCUGGGAACUAAUUUGUAUGCGAAAGUAUAUUGAUUAGUUUUGGAGUACUCGUGGUCG
In short: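 Colonies from six replicate transformations of E. coli BL21(DE3) were pooled and amplicon-sequenced on an Illumina HiSeq 2500. The library placed an intron with all eight P1ex-region nucleotides randomised inside the knt kanamycin-resistance gene on pET-22b(+), and cells grew overnight at 37°C or 30°C on LB agar with or without 25 μg/mL kanamycin (plus 100 μg/mL carbenicillin, 50 μM IPTG, 0.2% rhamnose). Fitness is the DiMSum error-weighted combination of wild-type-normalised replicate fold changes, kanamycin versus none.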

Sequence | self-splicing fitness (ln) (30 °C) | self-splicing fitness (ln) (37 °C)
ACGGAGCAAUAUUACGCAUC | -2.6 ± 0.17 | -2.03 ± 0.21
ACGGAGCAAUAUUACGCCGG | -1.09 ± 0.38 | 
ACGGAGCAAUAUUACGCGCG | -2 ± 0.15 | -0.429 ± 0.14
ACGGAGCAAUAUUACGCGGC | -3.42 ± 0.44 | 
ACGGAGCAAUAUUACGCUCC |  | -1.28 ± 0.37
ACGGAGCAAUAUUACGGAGU | -2.53 ± 0.27 | -1.55 ± 0.18
ACGGAGCAAUAUUACGGAUC | -3.09 ± 0.17 | -2.79 ± 0.26
ACGGAGCAAUAUUACGGCGC | 0.159 ± 0.44 | -0.221 ± 0.45
ACGGAGCAAUAUUACGGCUC | -3.6 ± 0.3 | -2.87 ± 0.48
ACGGAGCAAUAUUACGGGUU | -3.25 ± 0.16 | -3.6 ± 0.3
ACGGAGCAAUAUUACGGUAG |  | -2.33 ± 0.31
ACGGAGCAAUAUUACGGUCC | -3.38 ± 0.36 | -1.39 ± 0.34
ACGGAGCAAUAUUACGGUUG | -3.93 ± 0.31 | -2.22 ± 0.18
ACGGAGCAAUAUUACGUCAG | -3.38 ± 0.19 | -1.69 ± 0.18
ACGGAGCAAUAUUACGUCCU | -1.85 ± 0.13 | -1.27 ± 0.15
ACGGAGCAAUAUUACGUCGA | -2.03 ± 0.38 | -2.07 ± 0.28
ACGGAGCAAUAUUACGUCUA | -3.96 ± 0.46 | -1.3 ± 0.16
ACGGAGCAAUAUUACGUCUG | -1.94 ± 0.19 | 0.013 ± 0.14
ACGGAGCAAUAUUACGUGAC | -2.68 ± 0.28 | -2.16 ± 0.42
ACGGAGCAAUAUUACGUUAU |  | -2.94 ± 0.23
ACGUAGCAAUAUUACGAAGA | -2.85 ± 0.41 | -0.644 ± 0.16
ACGUAGCAAUAUUACGACGC | -0.35 ± 0.25 | -0.563 ± 0.3
ACGUAGCAAUAUUACGAGGG | -3.91 ± 0.26 | -2.92 ± 0.26
ACGUAGCAAUAUUACGAGUC | -3.3 ± 0.4 | -3.2 ± 0.35

Sequence | self-splicing fitness (ln) (30 °C) | self-splicing fitness (ln) (37 °C)
ACGUAGCAAUAUUACGCCAA | -2.3 ± 0.38 | -1.5 ± 0.37
ACGUAGCAAUAUUACGCGUG | -1.73 ± 0.094 | -0.962 ± 0.11
ACGUAGCAAUAUUACGCUAG | -2.85 ± 0.12 | -0.713 ± 0.13
ACGUAGCAAUAUUACGCUCC | -2.71 ± 0.36 | -0.259 ± 0.22
ACGUAGCAAUAUUACGGAGC | -3.42 ± 0.22 | -2.39 ± 0.26
ACGUAGCAAUAUUACGGGCA | -0.955 ± 0.099 | -0.418 ± 0.12
ACGUAGCAAUAUUACGGGGA | -1.93 ± 0.1 | -1.83 ± 0.099
ACGUAGCAAUAUUACGUGAU | -3.19 ± 0.14 | -1.63 ± 0.12
ACGUAGCAAUAUUACGUGGC | -2.94 ± 0.17 | -2.98 ± 0.26
ACGUAGCAAUAUUACGUUAU | -3.76 ± 0.17 | -2.34 ± 0.16
ACGUAGCAAUAUUACGUUCG | -2.69 ± 0.12 | -0.757 ± 0.12
ACGUAGCAAUAUUACGUUUC | -4.47 ± 0.25 | -2.87 ± 0.19
ACGUAGCAAUAUUACGUUUU | -2.63 ± 0.12 | -1.15 ± 0.12
ACUAAGCAAUAUUACGAAAA | -2.26 ± 0.33 | -1.72 ± 0.36
ACUAAGCAAUAUUACGAAGC | -3.67 ± 0.21 | -3.25 ± 0.22
ACUAAGCAAUAUUACGAAGG | -1.51 ± 0.087 | -0.966 ± 0.12
ACUAAGCAAUAUUACGACAG | -0.663 ± 0.085 | -0.322 ± 0.11
ACUAAGCAAUAUUACGACGC | -0.258 ± 0.11 | -0.0244 ± 0.12
ACUAAGCAAUAUUACGAGAU | -3 ± 0.15 | -2.45 ± 0.2
ACUAAGCAAUAUUACGAGCG | -0.928 ± 0.084 | 0.115 ± 0.14
ACUAAGCAAUAUUACGAGGC | -3.03 ± 0.23 | -2.48 ± 0.25
ACUAAGCAAUAUUACGCAAU | -2.04 ± 0.076 | -1.65 ± 0.086
ACUAAGCAAUAUUACGCACG | -1.68 ± 0.1 | -0.457 ± 0.13
ACUAAGCAAUAUUACGCGCU | -0.324 ± 0.093 | 0.362 ± 0.13

Sequence | self-splicing fitness (ln) (30 °C) | self-splicing fitness (ln) (37 °C)
ACUAAGCAAUAUUACGCGGU | -2.65 ± 0.14 | -2.59 ± 0.21
ACUAAGCAAUAUUACGCUAC | -3.94 ± 0.23 | -1.08 ± 0.18
ACUAAGCAAUAUUACGCUAU | -1.88 ± 0.072 | -1.84 ± 0.1
ACUAAGCAAUAUUACGGAAU | -1.97 ± 0.1 | -2.04 ± 0.16
ACUAAGCAAUAUUACGGAUA | -2.38 ± 0.16 | -2.54 ± 0.2
ACUAAGCAAUAUUACGGAUU | -2.79 ± 0.14 | -1.1 ± 0.11
ACUAAGCAAUAUUACGGGCC | -2.88 ± 0.2 | -1.73 ± 0.21
ACUAAGCAAUAUUACGGUGU | -3.49 ± 0.15 | -2.23 ± 0.12
ACUAAGCAAUAUUACGUAAU | -1.14 ± 0.073 | -0.739 ± 0.09
ACUAAGCAAUAUUACGUAUU | -2.09 ± 0.082 | -1.9 ± 0.11
ACUAAGCAAUAUUACGUGCC | -1.22 ± 0.13 | -0.754 ± 0.14
ACUAAGCAAUAUUACGUUAA | -2.77 ± 0.14 | -2.7 ± 0.18
ACUCAGCAAUAUUACGAAGG | -0.983 ± 0.1 | -1.19 ± 0.14
ACUCAGCAAUAUUACGACGG | -0.71 ± 0.072 | 0.0441 ± 0.12
ACUCAGCAAUAUUACGAGUA | -2.23 ± 0.12 | -1.1 ± 0.1
ACUCAGCAAUAUUACGAGUG | -1.59 ± 0.081 | -0.296 ± 0.11
ACUCAGCAAUAUUACGCAAG | -1.89 ± 0.11 | -0.159 ± 0.087
ACUCAGCAAUAUUACGCAGA | -3.11 ± 0.2 | -2.55 ± 0.22
ACUCAGCAAUAUUACGCCAU | -3.02 ± 0.17 | -2.28 ± 0.16
ACUCAGCAAUAUUACGCCGA | -3.36 ± 0.39 | -2.3 ± 0.28
ACUCAGCAAUAUUACGCGAU | -3.34 ± 0.16 | -2.18 ± 0.2
ACUCAGCAAUAUUACGCGUU | -1.91 ± 0.055 | -1.18 ± 0.072
ACUCAGCAAUAUUACGGAAA | -1.61 ± 0.14 | -1.5 ± 0.16
ACUCAGCAAUAUUACGGCAU | -0.665 ± 0.063 | -0.293 ± 0.067

Sequence | self-splicing fitness (ln) (30 °C) | self-splicing fitness (ln) (37 °C)
ACUCAGCAAUAUUACGGCUC | -0.59 ± 0.09 | -0.761 ± 0.12
ACUCAGCAAUAUUACGGGCG | -0.574 ± 0.044 | 0.27 ± 0.062
ACUCAGCAAUAUUACGGUAU | -1.67 ± 0.057 | -0.522 ± 0.093
ACUCAGCAAUAUUACGUCUC | -1.8 ± 0.072 | -0.51 ± 0.083
ACUCAGCAAUAUUACGUGUA | -1.39 ± 0.1 | -0.266 ± 0.096
ACUCAGCAAUAUUACGUUAA | -2.35 ± 0.13 | -1.41 ± 0.12
ACUCAGCAAUAUUACGUUCA | -1.36 ± 0.085 | -0.842 ± 0.11
ACUCAGCAAUAUUACGUUCC | -2.15 ± 0.22 | -0.606 ± 0.2
ACUCAGCAAUAUUACGUUCG | -0.678 ± 0.086 | -0.331 ± 0.11
ACUCAGCAAUAUUACGUUGA | -2.37 ± 0.15 | -0.607 ± 0.14
ACUGAGCAAUAUUACGAACA | -3.84 ± 0.47 | -2.59 ± 0.48
ACUGAGCAAUAUUACGAAUG | -3.69 ± 0.4 | -1.89 ± 0.22
ACUGAGCAAUAUUACGACAC | -3.62 ± 0.2 | -2.07 ± 0.24
ACUGAGCAAUAUUACGACCG | -1.3 ± 0.17 | -0.981 ± 0.23
ACUGAGCAAUAUUACGACGC | 0.0713 ± 0.15 | 0.648 ± 0.2
ACUGAGCAAUAUUACGAGAG | -3.31 ± 0.18 | -3.34 ± 0.32
ACUGAGCAAUAUUACGAGCA | -2.63 ± 0.27 | -1.42 ± 0.19
ACUGAGCAAUAUUACGAGUC | -3.18 ± 0.23 | -3.2 ± 0.28
ACUGAGCAAUAUUACGAUAA | -2.94 ± 0.26 | -2.75 ± 0.32
ACUGAGCAAUAUUACGAUAU | -4.44 ± 0.36 | -2.8 ± 0.2
ACUGAGCAAUAUUACGCACA | -2.37 ± 0.4 | -2.15 ± 0.29
ACUGAGCAAUAUUACGCAGA | -2.38 ± 0.14 | -1.25 ± 0.1
ACUGAGCAAUAUUACGCCAG | -2.93 ± 0.49 | -2.78 ± 0.47
ACUGAGCAAUAUUACGCCCA | -2.64 ± 0.43 | -2.15 ± 0.28
